{"source": "paper PMC10269845", "about": "“Hijacking of Host Plasminogen by Mesomycoplasma (Mycoplasma) hyopneumoniae via GAPDH: an Important Virulence Mechanism To Promote Adhesion and Extracellular Matrix Degradation” (Microbiology Spectrum, 2023)", "binders": {"B1": {"name": "Recombinant glyceraldehyde-3-phosphate dehydrogenase (GAPDH) of Mesomycoplasma (Mycoplasma) hyopneumoniae strain 168 (enzyme)", "chain": "MKKIAINGFGRIGRLALRRLFEVNDENLQVVAINDLTDASVLAHLFKYDSAHGKFNGEVEVLKDNGKNYLKIKGQKILVLSERDPKSLPWGQLGIDLVVECTGFFASKSGASQHLEAGAKKVIISAPAGNDVKTIVYNVNCDTITEDDRILSSASCTTNALAPLVNALDKEFGINHGFMTTIHAYTADQRLQDAPHGDLRRARAAGVNLVPSSTGAAKAIGLVVPSLTGKLDGIAIRVPVITGSFVDLSVELKSNPSIEEINQKMREYANESFAYCDEPIVSSDIIGDRHGSIFDATLTKYIEANGKRLYKLYTWYDNEYSFVSQFVRVIRDFVQK", "notes": "also called rGAPDH; source: E. coli BL21(DE3), pET-32a, purified (Ni resin FF)"}}, "biological_target": "plasminogen (UniProt P00747 20-810)", "sequence (P00747 20-810)": "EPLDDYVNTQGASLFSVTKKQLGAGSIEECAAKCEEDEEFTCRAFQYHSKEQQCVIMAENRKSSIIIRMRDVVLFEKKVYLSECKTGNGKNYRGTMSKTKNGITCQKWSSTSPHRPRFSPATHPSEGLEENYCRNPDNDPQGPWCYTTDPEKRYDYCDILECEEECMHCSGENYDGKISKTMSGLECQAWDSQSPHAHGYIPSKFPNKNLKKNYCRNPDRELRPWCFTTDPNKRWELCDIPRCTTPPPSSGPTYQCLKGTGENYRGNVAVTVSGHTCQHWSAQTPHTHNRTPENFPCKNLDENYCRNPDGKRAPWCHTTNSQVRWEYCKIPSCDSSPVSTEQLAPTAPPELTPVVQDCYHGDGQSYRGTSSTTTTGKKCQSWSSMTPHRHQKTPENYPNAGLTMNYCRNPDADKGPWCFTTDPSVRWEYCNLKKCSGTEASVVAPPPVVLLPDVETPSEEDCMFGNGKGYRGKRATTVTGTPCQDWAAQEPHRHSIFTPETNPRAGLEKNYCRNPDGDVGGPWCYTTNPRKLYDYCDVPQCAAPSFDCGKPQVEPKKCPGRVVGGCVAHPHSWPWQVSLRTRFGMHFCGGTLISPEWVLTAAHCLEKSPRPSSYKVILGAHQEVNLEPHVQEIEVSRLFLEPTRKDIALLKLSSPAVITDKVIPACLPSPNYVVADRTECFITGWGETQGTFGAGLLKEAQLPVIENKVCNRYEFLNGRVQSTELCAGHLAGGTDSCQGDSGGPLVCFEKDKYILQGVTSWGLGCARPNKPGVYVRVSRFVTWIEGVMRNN", "assay": "SPR", "details": "both partners purified"}
{"binder": "B1", "values": [{"measurement": "Kd", "result": 376, "unit": "nM"}]}
